Laboratory results reported in publication PMC10346447.

Molecular target: AvrLm10B_like2‐RFP (Leptosphaeria maculans 'brassicae')
Experiment: FRET or BRET

- FRET efficiency E: 32.1%
- donor (GFP) mean fluorescence lifetime τ with the acceptor: 1.89 ns
Substance: AvrLm10A_like2‐GFP (natural protein)
